Assay: soluble on expression in E. coli; label from the status in PepcDB or PDB records

Sequence | soluble on expression in E. coli
MSEKDQSVNNTEEDFNVETEDNQNDTNIENSVSNTDNSEANASDSENNSEESIKDEESESQDTKIKELEKLANDNEEKYLRLYAEFENYKRRIQKENQINATYKAQGVLTDILPSIDNIERALQIEGDDESFKSLQKGVQMVHESLLRALKDNGLEEILAEGKEFDPNLHQAVVQDDNPDFKSGEVTQELQKGYKLKDRVLRPSMVKVNQ | soluble
MSEMPAREQMISAYSELVGLDPVSLGDGVAEVRLPMAAHLRNRGGVMHGGALFSLMDVTMGLACSSSHGFDRQSVTLECKINYIRAVADGEVRCVARVLHAGRRSLVVEAEVRQGDKLVAKGQGTFAQL | soluble
MSETATWQPSASIPNLLKRAAIMAEIRRFFADRGVLEVETPCMSQATVTDIHLFPFETRFVGPGHSQGINLYLMTSPEYHMKRLLAAGCGPVFQLCRSFRNEEMGRHHNPEFTMLEWYRPHYDMYRLMNEVDDLLQQVLDCQPAESLSYQQAFQRHLEIDPLSADKTQLREAAAKLDLSNIADTEEDRDTLLQLLFTMGVEPHIGKEKPTFIYHFPASQASLAQISTEDHRVAERFEVYYKGIELANGFHELTDAREQQQRFEQDNRKRAARGLPQQPIDQNLLDALAAGLPDCSGVALGVDRLVMLALGAESLADVIAFTVDRA | not soluble
MSETELRKRQAQFTRELHGDDIGKKTGLSALMSKNNSAQKEAVQKYLRNWDGRTDKDAEERRLEDYNEATHSYYNVVTDFYEYGWGSSFHFSRFYKGESFAASIARHEHYLAYKAGIQRGDLVLDVGCGVGGPAREIARFTGCNVIGLNNNDYQIAKAKYYAKKYNLSDQMDFVKGDFMKMDFEENTFDKVYAIEATCHAPKLEGVYSEIYKVLKPGGTFAVYEWVMTDKYDENNPEHRKIAYEIELGDGIPKMFHVDVARKALKNCGFEVLVSEDLADNDDEIPWYYPLTGEWKYVQNLANLATFFRTSYLGRQFTTAMVTVMEKLGLAPEGSKEVTAALENAAVGLVAGGKSKLFTPMMLFVARKPENAETPSQTSQEATQ | soluble
MSETFTSVSQEEAGFRERARLSFDLDADICVIGAGLAGLSIALEAARLGASVAVLEGRHIGWNASGNQLGTVMPGFALPLTDLIERIGFEDARELWTLSKEGAEFVRANATEENMPGIAPSDGVLEVSNVDTGDRLISRLQMLHEDFDTEVEGWQVDRVRDVLKTDRYFHGVYYPKAFQVDGRKYVHGLAALARRAGARIFEDTPVVSIDHSGIRKRIVTPSARLRATHIVLAGNIHLGAPLRRLSETLLPVWRYAGITAPLGERVHEIIAFKGSVMDSDGVDHFRIVDGDRLMWESPETTWAARPQRFAGGVRRRIRSIFPQFGNVEIADMFGGATGQTVHGMPQIGQLRKGLWVASGFGRQGMNTSAMAGQMIARSILWGDERWRLFSPFELVWAGGATGRVAGQLVGIWGRASSAAAGTLARYRERARVKDREREARLAEANRAAGTGPRRPPPGVRPRPAPPPKPATEALEPASHDDSVSQLEHHHHHH | not soluble
MSETVYTAKDYKSGQPRWCPGCGDHAFLNSLHKAMAELGVAPHNIAVISGIGCSSRLPYYVNTYGFHTIHGRAAAVATGAKVANPDLTIWQISGDGDGLAIGGNHFIHAVRRNIDLNMILLNNRIYGLTKGQYSPTSDRGFVSKSSPYGTVEDPFHPAELCFGARGRFFARCVAVDGPASVEVLKAAANHKGASVVEVLQNCVIFNDGTHESVATKEGRSKNAIYLEHGKPMLFGENKEFGLMQEGFGLKVVKLGENGVTEKDILIHNAHSMDNTLQLKLALMEGPDFPIALGVIRDVEAPTYNDAVAEQIDEVKAKKKYHNFQELLMTNETWEVK | not soluble
MSFATISVIGLGYIGLPTAAAFASRQKQVIGVDINQHAVDTINRGEIHIVEPDLASVVKTAVEGGFLRASTTPVEADAWLIAVPTPFKGDHEPDMTYVESAARSIAPVLKKGALVILESTSPVGSTEKMAEWLAEMRPDLTFPQQVGEQADVNIAYCPERVLPGQVMVELIKNDRVIGGMTPVCSARASELYKIFLEGECVVTNSRTAEMCKLTENSFRDVNIAFANELSLICADQGINVWELIRLANRHPRVNILQPGPGVGGHCIAVDPWFIVAQNPQQARLIRTAREVNDHKPFWVIDQVKAAVADCLAATDKRASELKIACFGLAFKPNIDDLRESPAMEIAELIAQWHSGETLVVEPNIHQLPKKLTGLCTLAQLDEALATADVLVMLVDHSQFKVINGDNVHQQYVVDAKGVWR | not soluble
MSFDIAKYPTLALVDSTQELRLLPKESLPKLCDELRRYLLDSVSRSSGHFASGLGTVELTVALHYVYNTPFDQLIWDVGHQAYPHKILTGRRDKIGTIRQKGGLHPFPWRGESEYDVLSVGHSSTSISAGIGIAVAAEKEGKNRRTVCVIGDGAITAGMAFEAMNHAGDIRPDMLVVLNDNEMSISENVGALNNHLAQLLSGKLYSSLREGGKKVFSGVPPIKELLKRTEEHIKGMVVPGTLFEELGFNYIGPVDGHDVLGLITTLKNMRDLKGPQFLHIMTKKGRGYEPAEKDPITFHAVPKFDPSSGCLPKSSGGLPSYSKIFGDWLCETAAKDNKLMAITPAMREGSGMVEFSRKFPDRYFDVAIAEQHAVTFAAGLAIGGYKPIVAIYSTFLQRAYDQVLHDVAIQKLPVLFAIDRAGIVGADGQTHQGAFDLSYLRCIPEMVIMTPSDENECRQMLYTGYHYNDGPSAVRYPRGNAVGVELTPLEKLPIGKGIVKRRGEKLAILNFGTLMPEAAKVAESLNATLVDMRFVKPLDETLILEMAASHEALVTVEENAIMGGAGSGVNEVLMAHRKPVPVLNIGLPDFFIPQGTQEEMRAELGLDAAGMEAKIKAWLA | not soluble
MSFHVRFTLEAKADIERLYRFLAEHDFDVAERTLETIDSAWSLLEQFPFSCRKIDDANPFLREFIISFGNSGYVVLFEIEDSNTVTVLAVRHQLEDDYY | soluble
MSFQNQFTKTTTDANLMETVHHGSAEYPFRYYYENIALFDFKCIDWHWHSELEFIYIESGNVVFDIGTVHFELNEGNGIMINSKILHRLQSSSDAIIPNFLFQPSFIAPQDSLIYKKYINPVISSSLEYLVFQPDIPWQKKALEIIKTIIAVQETEFNREIIVSMSVQQLWILLLENLTFDQFENMGAVISRTRLQLMMQYVHAHYSENITLEDIARTANISKSTALHLFQNNLKLTPVKYLINYRLTQAALLLINTEEKIATISNNTGFNNVDHFCRTFKKTYKMTPTDYRNQERAPVS | not soluble
MSFRIYNTQKWSAEQMAPYLDKVIKSIAYFHKKFPDDYTPQTILNDILKGDKLLWIIVDEQENFMAHVTTELQKLVTGALRAVIVTLGGKGGAPLTKLIPQIEAYYKEKGAKELIIIGRRGWKKSLKSHGYFVNLLEYRKQL | not soluble
MSFSADALEGGLSSLKLAADKYRSILNDEKTGNIRWRYGGPPIFDTVNKLFEEERTHVQWRYDNPPDFNSVNQLFEEGQTKVWPEGSLEETVQNAIKSWEMEFSHKIRLQDFKTINPEKFKLFVNGREGLSAEETLRLGSYNALLKNSLPEEFQYYKPEEESFESSHDAFRSALPRGFAWEILSVYSGPPVIAFKFRHWGYFEGTFKGHAPTGEMVQFLGLGVLKVDESLRAEEIEIYYDPGELFGGLLKGPPISETKTTDSGDNTAEKQSCPFTH | soluble
MSFTPANRAYPYTRLRRNRRDDFSRRLVRENVLTVDDLILPVFVLDGVNQRESIPSMPGVERLSIDQLLIEAEEWVALGIPALALFPVTPVEKKSLDAAEAYNPEGIAQRATRALRERFPELGIITDVALDPFTTHGQCGILDDDGYVLNDVSIDVLVRQALSHAEAGAQVVAPSDMMDGRIGAIREALESAGHTNVRVMAYSAKYASAYYGPFRDAVGSASNLGKGNKATYQMDPANSDEALHEVAADLAEGADMVMVKPGMPYLDIVRRVKDEFRAPTFVYQVSGEYAMHMGAIQNGWLAESVILESLTAFKRAGADGILTYFAKQAAEQLRRGR | soluble
MSFTPELNMAVCEFNLDSGCNAKESLIEMANNKISLETFKEHNIKALTMKYVNSESMMWEARKIVRIISRLEADEHQSRVAPKRSRSPGSTSPSASNSSSSSSELSFDMFSSKRTVPMKVTSKPKRVIAQASRTMKPHQQESRQESAEKDRANDEKLKKFIESRKLKEQAKKAANIQKCNEVKEAVMFPAKRMKKRQLEQYAYRFK | not soluble
MSFTTKVKEELIHLSTGDNNELAAIIKLSGSLGLAHQSLHLSITTENAKIARYIYSLIEDAYVIVPEIRYHQKTNLRKNRVYTVYVEQGVETILADLKLADSFFGLETGIEPQVLSDDNAGRSYLKGAFLAAGSIRDPESGKYQLEIYSVYLDHAQDLAQLMQKFMLDAKTIEHKSGAVTYLQKAEDIMDFLIIIGAMSCKEDFEAIKLLREARNDINRANNAETANIAKTISASMKTINNIIKIMDTIGLESLPIELQQVAQLRVKHPDYSIQQVADALEFPITKSGVNHRLRKINKIADDL | not soluble
MSGARLHTLLPELTTRQPVMVVGAAVIDVIADAYALPWRGCDIELKQQSVNVGGCALNIAVALKRLGIEAGNALPLGQGVWAEIIRNRMAKEGLISLIDNAESDNGWCLALVEPDGERTFMSFSGVENQWNRQWLARLTVAPGNLLYFSGYQLASPCGELLVEWLEKLQDVTPFIDFCPRIGDIPDALLARIMACRPLVSLNRQEAEIAAERFALSAEITTLGKQWQEKFAAPLIVRLDKEGAWYFSNDASGCIPAFPTQVVDTIGAGDSHAGGVLAGLASGLPLADAVLLGNAVASWVVGHRGGDCAPTREELLLAHKNV | not soluble
MSGAYDESAMSDETTDSFWEVGNYKRTVKRIEDGHRLCNDMMSCIQERAKIEKAYSQQLTDWSKRWRQLVERGPQYGTLERAWLAVMTEAEKVSELHQEVKNNLLNEDLEKVKNWQKDAYHKQMMGGFKETKEADEGFRKAQKPWAKKLKELETAKKTYHMACKEEKIASAREANSKGEASVTTDQQKKLQEKVDKCKNDVQKAKEKYEKSLDELNKCTPQYMENMEVVFDQCQQFEEKRLNFLREVLLDTKRHLNLTESQSYATVYRELERTIVSASAQEDLKWFSSVHGPGMHMNWPQFEEFNPDLSHAISKKEKVKRNHDGVTLTQVTHGAEHGTPQTGDRGSVSSYEKNQQYSAEWSDDEQPPTAAQSASETNGGNPFEEDSKGVRVRALYDYEGQEQDELTFKAGDELTKLEDEDEQGWCKGRLDSGQLGLYPANYVEPV | not soluble
MSGELKDRLVARALEEGFVSCRVCRPWDVPEMPARLGAFVEAGYHGQMGWMAERMEWRGDPAALWPEARSVIMLAESYAPDTDPMEVVGQPDRGAISVYARGKDYHDLVKKRLKRLARWLIEAGGGEVKVFVDTAPVPEKALGQAAGLGWQGKHTNLVSRDWGNWAFLGSVFTTLDLPSDPVGRDNCGSCSACLTACPTDAFPAPYRLDARRCISYLTIEHKGPVDEELRAKLGNRIYGCDDCLAACPWNKFAVAASDLRYGARPELSAPALADLARLDDAGFREMFSGSPIKRIGRDRFVRNVLYAIGNSGLPALRPVAQDLAQDSDPTVADAARWAAAKLAMSR | not soluble
MSGGPVKTPFLSFIIPAYNEEQRLPSYLERVIGFFAGQSYSFEIVVVDDGSSDGTAALVKALMAQHSCLRLEALDRNRGKGFAVKTGMSAAKGQLRVFADADGATPVEEIRRLLDAREQGADIAIGSRAMRSDECIVQGRVHRKIMGTVFNGLIRALAVRGIHDSQCGFKLFTASAAEDIFPRQRITGFGFDVELLFLARRLGYVVVEVPVNWSDVEGTKVRLVRDSFRMLGEVLRIRFTNLTGGYGDIPGKTLEHHHHHH | not soluble
MSGKPPAIFLMGPTAAGKTDLAIELTTVLPCELISVDSALVYRGMDIGSAKPSKEVLAAHPHRLIDILDPAQSYSAAQFRADALEAMAEITARGKIPLLVGGTMLYYKALIDGLADMPAADATVRAELEAQAEALGLAELHRQLAEVDPESAARIHPNDPQRLIRALEVYRVSGESMTAHRRRQFAESRGADAGAGGHLPYTVASLAIAPTDRHILHQRIALRFSQMLEQGFVDEVRSLRARSDLHAGLPSIRAVGYRQVWDYLDGKLTENEMRERGIIATRQLAKRQFTWLRGWPEVHWLDSLACDNLSRTLKYLGAISILSLEHHHHHH | soluble

Source: the DeepSol protein solubility set
